In article PMC3280215 (Science (New York, N.y.), 2011):

What was measured:
gp120 (of the ELISA) = gp120 (of the ELISA) (HIV-1, strain  for ELISA; …, UniProt Q75760); experiment: ELISA
[1] = target: HIV-1 YU2 Env on the cell surface (HIV-1 YU2, UniProt P35961); experiment: flow cytometry on cells

| Binder | binding result (gp120 (of the ELISA)) | binding result [1] |
| --- | --- | --- |
| PGT 128 VH H52aA (antibody, V domains shown) VH: QPQLQESGPTLVEASETLSLTCAVSGDSTAACNSFWGWVRQPPGKGLEWVGSLSACASYWNRGWTYHNPSLKSRLTLALDTPKNLVFLKLNSVTAADTATYYCARFGGEVLRYTDWPKPAWVDLWGRGTLVTVSS VL: QSALTQPPSASGSPGQSITISCTGTSNNFVSWYQQHAGKAPKLVIYDVNKRPSGVPDRFSGSKSGNTASLTVSGLQTDDEAVYYCGSLVGNWDVIFGGGTKLTVL | binds |  |
| PGT 128 (format not stated for the experiment) (antibody, V domains shown) VH: QPQLQESGPTLVEASETLSLTCAVSGDSTAACNSFWGWVRQPPGKGLEWVGSLSHCASYWNRGWTYHNPSLKSRLTLALDTPKNLVFLKLNSVTAADTATYYCARFGGEVLRYTDWPKPAWVDLWGRGTLVTVSS VL: QSALTQPPSASGSPGQSITISCTGTSNNFVSWYQQHAGKAPKLVIYDVNKRPSGVPDRFSGSKSGNTASLTVSGLQTDDEAVYYCGSLVGNWDVIFGGGTKLTVL | binds |  |
| Fab PGT 128 (Fab, V domains shown) VH: QPQLQESGPTLVEASETLSLTCAVSGDSTAACNSFWGWVRQPPGKGLEWVGSLSHCASYWNRGWTYHNPSLKSRLTLALDTPKNLVFLKLNSVTAADTATYYCARFGGEVLRYTDWPKPAWVDLWGRGTLVTVSS VL: QSALTQPPSASGSPGQSITISCTGTSNNFVSWYQQHAGKAPKLVIYDVNKRPSGVPDRFSGSKSGNTASLTVSGLQTDDEAVYYCGSLVGNWDVIFGGGTKLTVL |  | binds |
| PGT 127 IgG (antibody, V domains shown) VH: QPQLQESGPGLVEASETLSLTCTVSGDSTGRCNYFWGWVRQPPGKGLEWIGSLSHCRSYYNTDWTYHNPSLKSRLTISLDTPKNQVFLRLTSVTAADTATYYCARFGGEVLVYRDWPKPAWVDLWGRGTLVTVSS VL: QSALTQPPSASGSPGQSITISCTGTSNNFVSWYQQYPGKAPKLVIYEVNKRPSGVPDRFSGSKSGSTASLTVSGLQADDEGVYYCSSLVGNWDVIFGGGTKLTVL |  | binds |
| PGT 127 (format not stated for the experiment) (antibody, V domains shown) VH: QPQLQESGPGLVEASETLSLTCTVSGDSTGRCNYFWGWVRQPPGKGLEWIGSLSHCRSYYNTDWTYHNPSLKSRLTISLDTPKNQVFLRLTSVTAADTATYYCARFGGEVLVYRDWPKPAWVDLWGRGTLVTVSS VL: QSALTQPPSASGSPGQSITISCTGTSNNFVSWYQQYPGKAPKLVIYEVNKRPSGVPDRFSGSKSGSTASLTVSGLQADDEGVYYCSSLVGNWDVIFGGGTKLTVL | binds |  |
| Fab PGT 127 (Fab, V domains shown) VH: QPQLQESGPGLVEASETLSLTCTVSGDSTGRCNYFWGWVRQPPGKGLEWIGSLSHCRSYYNTDWTYHNPSLKSRLTISLDTPKNQVFLRLTSVTAADTATYYCARFGGEVLVYRDWPKPAWVDLWGRGTLVTVSS VL: QSALTQPPSASGSPGQSITISCTGTSNNFVSWYQQYPGKAPKLVIYEVNKRPSGVPDRFSGSKSGSTASLTVSGLQADDEGVYYCSSLVGNWDVIFGGGTKLTVL |  | binds |
| PGT 128 IgG (antibody, V domains shown) VH: QPQLQESGPTLVEASETLSLTCAVSGDSTAACNSFWGWVRQPPGKGLEWVGSLSHCASYWNRGWTYHNPSLKSRLTLALDTPKNLVFLKLNSVTAADTATYYCARFGGEVLRYTDWPKPAWVDLWGRGTLVTVSS VL: QSALTQPPSASGSPGQSITISCTGTSNNFVSWYQQHAGKAPKLVIYDVNKRPSGVPDRFSGSKSGNTASLTVSGLQTDDEAVYYCGSLVGNWDVIFGGGTKLTVL |  | binds |
